The target of assay [1] is microtubules polymerised from bovine brain tubulin (bovine (endogenous in brain)) (UniProt Q6B856). Put plainly: TIRF microscopy (single-molecule imaging); 750 nM unlabeled Tau spiked with 300 pM Alexa-647-labeled Tau on dynamic microtubules (5 μM tubulin, 10% Alexa-488) grown from surface-held GMPCPP seeds, TIRF assay buffer, 37 °C, 10 frames/s.
Assay [2] has the same target. Put plainly: TIRF microscopy (fluorescence intensity of labeled Tau on microtubules); occupancy: 750 nM Alexa-647 Tau on dynamic microtubules grown from surface-held GMPCPP seeds with 5 μM tubulin, 1 mM GTP, TIRF assay buffer (BRB80, 10 mM DTT, oxygen scavenger), 37 °C; normalized average fluorescence intensity, seeds excluded.
The target is the same in assay [3].
Assay [4] deals with R5L-Tau, 3RS isoform, Alexa 488-labeled (construct for FCS) (UniProt P10636). As to the kind of experiment: fluorescence correlation spectroscopy (FCS); ~20 nM Alexa 488-labeled Tau, tubulin titrated 0.5-10 μM, nonpolymerizing conditions, BRB80 (80 mM Pipes, 1 mM EGTA, 1 mM MgCl2, pH 6.9), 20 °C, 5 min incubation; diffusion times normalised to that without tubulin and fit to a binding model.

Assay [5] addresses WT-Tau, 3RS isoform, Alexa 488-labeled (construct for FCS) (UniProt P10636). The assay is described as above.

As to “R5L-Tau, 3RS isoform (construct for TIRF microscopy), Alexa 647-labeled (from UniProt P10636-2 1-352) (natural protein)”, in assay [1], the dwell time of diffusive events came to 0.5 s, the dwell time of static events was 0.7 s and the percent static binding was found to be 18%. This substance displayed a relative normalized fluorescence intensity of Tau on dynamic microtubules in assay [2] of 0.68. Further, in assay [3], the microtubule growth rate at the minus end, dynamic microtubules with 750 nM unlabeled Tau (TIRF) worked out at 0.41 μm/min; the microtubule growth rate at the plus end, dynamic microtubules with 750 nM unlabeled Tau (TIRF) was determined as 1.04 μm/min; the microtubule shrinkage rate at the minus end, dynamic microtubules with 750 nM unlabeled Tau (TIRF) is 10.4 μm/min; the microtubule shrinkage rate at the plus end, dynamic microtubules with 750 nM unlabeled Tau (TIRF) was 11 μm/min.

For the substance “WT-Tau, 3RS isoform (construct for TIRF microscopy), Alexa 647-labeled (from UniProt P10636-2 1-352) (natural protein)”, in assay [1], the dwell time of diffusive events is 0.6 s, the dwell time of static events worked out at 0.7 s and the percent static binding was determined as 43%. This substance came in with a relative normalized fluorescence intensity of Tau on dynamic microtubules in assay [2] of 1. In addition, in assay [3], the microtubule growth rate at the minus end, dynamic microtubules with 750 nM unlabeled Tau (TIRF) was determined as 0.4 μm/min; the microtubule growth rate at the plus end, dynamic microtubules with 750 nM unlabeled Tau (TIRF) was found to be 1 μm/min; the microtubule shrinkage rate at the minus end, dynamic microtubules with 750 nM unlabeled Tau (TIRF) amounted to 7.12 μm/min; the microtubule shrinkage rate at the plus end, dynamic microtubules with 750 nM unlabeled Tau (TIRF) was found to be 7.55 μm/min.

For “tubulin (free, soluble), purified from bovine brain (from UniProt Q6B856 1-445) (complex)”, the increase of the normalized diffusion time of Tau at saturation in assay [4] and in assay [5] was 50% in each case.

The values are drawn from article PMC9589210.
